How the values were obtained:
Test in all cases: two-hybrid; LexA-Cdc1 bait (pBTM116 or pBTM116BN) with Gal4-Pol3 prey and co-expressed c-myc-tagged Cdc27 (pAA-Cdc27) in S. cerevisiae CTY10-5d; ONPG liquid culture beta-galactosidase assay, mean of triplicates, as percent of wild-type Cdc1
Conditions in all cases: partners not purified
[1] = target: T1, Cdc1-J21 (Schizosaccharomyces pombe, UniProt P87324 1-462, Leu-GlyValProGlnLeu-Asp)
T1 construct: Cdc1, S. pombe, with a pentapeptide inserted after residue 275; source: yeast two-hybrid fusion, in S. cerevisiae CTY10-5d
T1 sequence (looked up): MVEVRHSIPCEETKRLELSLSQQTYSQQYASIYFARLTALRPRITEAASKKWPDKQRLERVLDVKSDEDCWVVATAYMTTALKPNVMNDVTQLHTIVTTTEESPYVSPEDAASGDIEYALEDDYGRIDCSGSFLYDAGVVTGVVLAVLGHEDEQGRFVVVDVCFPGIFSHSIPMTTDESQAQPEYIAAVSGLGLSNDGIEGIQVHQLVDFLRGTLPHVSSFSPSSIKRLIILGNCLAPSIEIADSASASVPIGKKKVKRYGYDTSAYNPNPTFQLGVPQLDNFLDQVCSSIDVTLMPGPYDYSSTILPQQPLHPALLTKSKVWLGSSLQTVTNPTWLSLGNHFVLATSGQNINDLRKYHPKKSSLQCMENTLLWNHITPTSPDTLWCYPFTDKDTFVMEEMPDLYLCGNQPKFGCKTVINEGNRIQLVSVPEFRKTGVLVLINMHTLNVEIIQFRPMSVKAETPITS

[2] = target: T2, Cdc1-A2 (Schizosaccharomyces pombe, UniProt P87324 1-462, Gly293Ala)
T2 construct: Cdc1, S. pombe, point mutant; source: yeast two-hybrid fusion, in S. cerevisiae CTY10-5d
T2 sequence (looked up): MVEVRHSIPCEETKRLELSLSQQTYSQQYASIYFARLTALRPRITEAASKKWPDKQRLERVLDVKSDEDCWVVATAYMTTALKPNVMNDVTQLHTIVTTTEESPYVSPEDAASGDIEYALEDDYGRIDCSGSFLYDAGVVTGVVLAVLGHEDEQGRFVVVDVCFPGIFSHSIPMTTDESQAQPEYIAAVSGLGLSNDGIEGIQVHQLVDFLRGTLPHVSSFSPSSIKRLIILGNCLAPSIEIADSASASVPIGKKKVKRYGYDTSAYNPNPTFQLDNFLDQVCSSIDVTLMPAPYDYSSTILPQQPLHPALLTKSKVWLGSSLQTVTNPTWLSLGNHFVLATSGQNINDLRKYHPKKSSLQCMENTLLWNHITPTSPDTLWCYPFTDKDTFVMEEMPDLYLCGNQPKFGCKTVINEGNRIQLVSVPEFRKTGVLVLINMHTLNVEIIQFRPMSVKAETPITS

[3] = target: T3, Cdc1-E2 (Schizosaccharomyces pombe, UniProt P87324 1-26)
T3 construct: Cdc1, S. pombe, truncated after amino acid 26 by a 16 nt insertion; residues coded by the 16 nt insertion before the stop codon (printed as GlyValProLysTer); source: yeast two-hybrid fusion, in S. cerevisiae CTY10-5d
T3 chain: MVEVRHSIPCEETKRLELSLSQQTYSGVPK

[4] = target: T4, Cdc1-E5 (Schizosaccharomyces pombe, UniProt P87324 1-462, Val-MetGlyTyrProVal-Met)
T4 construct: Cdc1, S. pombe, with a pentapeptide inserted after residue 86; source: yeast two-hybrid fusion, in S. cerevisiae CTY10-5d
T4 sequence (looked up): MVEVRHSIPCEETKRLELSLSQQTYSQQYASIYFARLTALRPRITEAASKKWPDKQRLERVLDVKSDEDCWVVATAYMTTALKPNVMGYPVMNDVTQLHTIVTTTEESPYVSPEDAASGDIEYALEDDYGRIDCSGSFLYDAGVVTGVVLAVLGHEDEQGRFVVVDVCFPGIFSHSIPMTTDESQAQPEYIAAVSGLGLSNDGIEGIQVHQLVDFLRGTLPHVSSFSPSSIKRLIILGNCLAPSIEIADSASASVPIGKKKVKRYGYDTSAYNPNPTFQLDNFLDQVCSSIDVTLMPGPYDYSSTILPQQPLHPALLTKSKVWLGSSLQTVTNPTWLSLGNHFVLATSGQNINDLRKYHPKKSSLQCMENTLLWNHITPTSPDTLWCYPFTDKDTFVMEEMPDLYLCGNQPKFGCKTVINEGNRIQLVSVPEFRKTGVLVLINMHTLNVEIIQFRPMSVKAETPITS

[5] = target: T5, Cdc1-J6 (Schizosaccharomyces pombe, UniProt P87324 1-462, Tyr-GlyValProHisTyr-Gly)
T5 construct: Cdc1, S. pombe, with a pentapeptide inserted after residue 124; source: yeast two-hybrid fusion, in S. cerevisiae CTY10-5d
T5 sequence (looked up): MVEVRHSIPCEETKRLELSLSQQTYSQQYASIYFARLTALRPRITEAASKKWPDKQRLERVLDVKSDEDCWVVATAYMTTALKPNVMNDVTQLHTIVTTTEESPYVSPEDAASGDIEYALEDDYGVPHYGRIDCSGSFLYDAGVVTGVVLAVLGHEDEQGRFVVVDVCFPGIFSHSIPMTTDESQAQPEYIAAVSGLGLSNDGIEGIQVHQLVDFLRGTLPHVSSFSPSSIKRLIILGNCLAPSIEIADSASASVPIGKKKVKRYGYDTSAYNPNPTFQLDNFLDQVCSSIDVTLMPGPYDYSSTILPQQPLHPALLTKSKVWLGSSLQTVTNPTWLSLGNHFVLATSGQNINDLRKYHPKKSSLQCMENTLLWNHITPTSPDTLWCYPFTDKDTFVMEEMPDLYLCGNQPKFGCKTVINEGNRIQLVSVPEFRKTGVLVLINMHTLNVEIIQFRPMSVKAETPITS

two-hybrid beta-galactosidase activity, % of wild-type Cdc1 [1]: < 1%
two-hybrid beta-galactosidase activity, % of wild-type Cdc1 [2]: < 1%
two-hybrid beta-galactosidase activity, % of wild-type Cdc1 [3]: < 1%
two-hybrid beta-galactosidase activity, % of wild-type Cdc1 [4]: 48%
two-hybrid beta-galactosidase activity, % of wild-type Cdc1 [5]: < 1%
B1: Pol3 (fission yeast DNA polymerase delta catalytic subunit) (natural protein, Schizosaccharomyces pombe, UniProt P30316 1-1086, looked up)
chain: MTDRSSNEGVVLNKENYPFPRRNGSIHGEITDVKRRRLSERNGYGDKKGSSSKEKTSSFEDELAEYASQLDQDEIKSSKDQQWQRPALPAINPEKDDIYFQQIDSEEFTEGSVPSIRLFGVTDNGNSILVHVVGFLPYFYVKAPVGFRPEMLERFTQDLDATCNGGVIDHCIIEMKENLYGFQGNEKSPFIKIFTTNPRILSRARNVFERGEFNFEELFPVGVGVTTFESNTQYLLRFMIDCDVVGMNWIHLPASKYQFRYQNRVSNCQIEAWINYKDLISLPAEGQWSKMAPLRIMSFDIECAGRKGVFPDPSIDPVIQIASIVTQYGDSTPFVRNVFCVDTCSQIVGTQVYEFQNQAEMLSSWSKFVRDVDPDVLIGYNICNFDIPYLLDRAKSLRIHNFPLLGRIHNFFSVAKETTFSSKAYGTRESKTTSIPGRLQLDMLQVMQRDFKLRSYSLNAVCSQFLGEQKEDVHYSIITDLQNGTADSRRRLAIYCLKDAYLPQRLMDKLMCFVNYTEMARVTGVPFNFLLARGQQIKVISQLFRKALQHDLVVPNIRVNGTDEQYEGATVIEPIKGYYDTPIATLDFSSLYPSIMQAHNLCYTTLLDSNTAELLKLKQDVDYSVTPNGDYFVKPHVRKGLLPIILADLLNARKKAKADLKKETDPFKKAVLDGRQLALKVSANSVYGFTGATNGRLPCLAISSSVTSYGRQMIEKTKDVVEKRYRIENGYSHDAVVIYGDTDSVMVKFGVKTLPEAMKLGEEAANYVSDQFPNPIKLEFEKVYFPYLLISKKRYAGLFWTRTDTYDKMDSKGIETVRRDNCPLVSYVIDTALRKMLIDQDVEGAQLFTKKVISDLLQNKIDMSQLVITKALSKTDYAAKMAHVELAERMRKRDAGSAPAIGDRVAYVIIKGAQGDQFYMRSEDPIYVLENNIPIDAKYYLENQLSKPLLRIFEPILGEKASSLLHGDHTRTISMAAPSVGGIMKFAVKVETCLGCKAPIKKGKTALCENCLNRSAELYQRQVAQVNDLEVRFARLWTQCQRCQGSMHQDVICTSRDCPIFYMRIAEHKKLQQSVDLLKRFDEMSW
notes: DNA polymerase delta catalytic subunit Pol3, S. pombe; prey plasmid named pACT-Pol3 in the results and pGAD2F-Pol3 in the methods; also called Gal4-Pol3; pACT-Pol3; source: yeast two-hybrid fusion, in S. cerevisiae CTY10-5d
